This test concerns the target CO17 B NA (neuraminidase head of B/Colorado/06/2017, B/Victoria-lineage) (influenza B virus B/Colorado/06/2017). Nature of the test: cryo-EM structure.

This is an account of results in publication doi:10.1101/2024.11.26.625467.

What is called stoichiometry N is a count of units in the complex or per binding partner. Regarding “CO17 B NA (neuraminidase head of B/Colorado/06/2017, B/Victoria-lineage) (domain or fragment)”, the stoichiometry N was 4.
